Source: PMC9162458

What was measured:
[1] = target: LiRAD51^ATPase (Leishmania infantum RAD51 ATPase domain, residues 134–386) (Leishmania infantum); experiment: fluorescence polarisation; competition: 5 nM Fluor-NCys-LiBRC1 probe with 500 nM LiRAD51^ATPase, GB1-LiBRC repeats in serial dilutions; KD estimated from the fitted IC50; 50 mM Tris pH 8.0, 150 mM NaCl, 100 mM Li2SO4, 1% BSA, 0.1% Tween-20
[2] = target: LiRAD51^ATPase (Leishmania infantum RAD51 ATPase domain, residues 134–386) (Leishmania infantum); experiment: ITC; LiBRC1 peptide in the syringe, LiRAD51^ATPase in the cell; 25°C; 20 mM Tris pH 8.0, 150 mM NaCl, 100 mM Li2SO4; single-site binding model
[3] = target: Fluor-NCys-LiBRC1 probe (Leishmania infantum); experiment: fluorescence polarisation; direct titration: LiRAD51^ATPase in two-fold serial dilutions into 5 nM Fluor-NCys-LiBRC1 probe; 50 mM Tris pH 8.0, 150 mM NaCl, 100 mM Li2SO4, 1% BSA, 0.1% Tween-20

Kd [1] | Substance | other results
290 nM | GB1-LiBRC1-His8 (BRC repeat 1 of Leishmania infantum BRCA2 fused to GB1) (domain or fragment) | –
– | LiBRC1 free peptide | Kd [2]: 650 nM
390 nM | LiBRC1.7 (C-terminal truncation of LiBRC1, residues up to Arg134 removed, GB1 fusion) (domain or fragment) | –
2090 nM | LiBRC1.8 (C-terminal truncation of LiBRC1, Glu133 also removed, GB1 fusion) (domain or fragment) | –
10100 nM | LiBRC1.10 (C-terminal truncation of LiBRC1, Val131 also removed, GB1 fusion) (domain or fragment) | –
8700 nM | LiBRC1.11 (C-terminal truncation of LiBRC1 up until Gln129, GB1 fusion) (domain or fragment) | –
– | LiRAD51^ATPase (Leishmania infantum RAD51 ATPase domain, residues 134–386) (domain or fragment) | Kd [3]: 165 nM

Substance | Kd [1] | other results
LiBRC2.1 (LiBRC2 Gly154 to alanine, GB1 fusion) (domain or fragment) | 10600 nM | –
